Where a chain is given by its changes, count along the chain named. One block for each binder: values may come before it.
Experiments:
[1] = biological target: T1, human Tigit extracellular domain recombinant protein hTigit-his (Acrobiosystem, Cat.TIT-H2H3) (human, UniProt Q495A1 22-141); assay: BLI epitope binning (ForteBIO QKe), hTigit-his on anti-Penta-HIS sensor; competitor R0223
T1 construct: extracellular domain; Bought; not shown: his tag
T1 sequence (looked up): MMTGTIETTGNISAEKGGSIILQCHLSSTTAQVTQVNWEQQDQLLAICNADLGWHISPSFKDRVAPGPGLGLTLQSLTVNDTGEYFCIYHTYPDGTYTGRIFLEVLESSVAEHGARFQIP
Experimental: Epitope competition analysis was performed on an anti-human TIGIT antibody with an MD ForteBIO QKe platform. An experimental method included: a human Tigit extracellular domain recombinant protein hTigit-his (Acrobiosystem, Cat.TIT-H2H3, lot-1336-76GF1-F9) carrying a his tag was diluted with an equilibration buffer (1×PBS+0.02% Tween 20), until the final concentration was 1.5 μg/ml. The anti-human Tigit antibody was diluted with the equilibration buffer (1×PBS+0.02% Tween 20), the final concentration being 5 μg/ml. After an anti-Penta-HIS biosensor (ForteBIO, Cat. 18-5122) was fully hydrated, first the hTigit-his recombinant protein was solidified for 180 seconds, then equilibrated for 30 seconds, and bound to the first anti-human Tigit antibody for 180 seconds, then equilibrated for 30 seconds, and then bound to the second anti-human Tigit antibody, binding time being 300 seconds. The whole reaction was performed at 25° C. and 1000 rpm; and finally, Octet analysis software was used to perform epitope binning analysis.

hTIGIT-hFc [2] = biological target: T2, hTIGIT-hFc (human, UniProt Q495A1 22-141); assay: FACS blocking: hTIGIT-hFc bound on U2-OS cells (PVR and CD112), then antibody, APC anti-human IgG Fc; first row of the table, row head not given; unit from the x axis Log[µg/mL]
T2 construct: also called antigen protein hTIGIT-hFc; human TIGIT recombinant protein carrying a human Fc tag; not shown: human Fc tag
T2 sequence (looked up): T1 sequence (looked up)
Experimental: (§1) U2-OS cells to be detected (human osteosarcoma cells, naturally and highly expressing PVR and CD112 by means of detection) were counted; centrifugated at 300 g for 5 min; resuspended with an FCM buffer; and cell density was adjusted to 4E+06 cell/mL for later use. […] According to an experimental design, in each well, 50 μL of the antigen protein and 50 μL of the cell (the volume of each cell added into a 96-well V-shaped plate being 2E+05 cell/well) were respectively added in the 96-well V-shaped plate; and incubation was performed in dark on ice for 30 min. Centrifugation (300 g/5 min) was performed; supernatant was discarded; 200 μL of the FCM buffer was added for washing once; centrifugation (300 g/5 min) was performed; and the supernatant was discarded. The antibody was added to the 96-well V-shaped plate (in 100 μL/well); and incubation was performed in dark on ice for 30 min. Centrifugation (300 g/5 min) was performed; supernatant was discarded; 200 μL of the FCM buffer was added for washing once; centrifugation (300 g/5 min) was performed; and the supernatant was discarded. Secondary antibodies (APC anti-human IgG Fc, 1:500 dilution) were added to the 96-well V-shaped plate (in 100 μL/well); and incubation was performed in dark on ice for 30 min. Centrifugation (300 g/5 min) was performed; supernatant was discarded; 200 μL of the FCM buffer was added for washing once; centrifugation (300 g/5 min) was performed; and the supernatant was discarded. 100 μL of the 1×PBS was added for resuspending, and on-machine detection was performed.

hTIGIT-hFc [3] = biological target: T2, hTIGIT-hFc; assay: FACS blocking on CHO-hCD112 cells; span of the fitted curve, unit from the y axis
Experimental: as §1, with “The CHO-engineered cell CHO-hCD112” for “U2-OS”, “recombinantly” for “to be detected (human osteosarcoma cells, naturally and highly”, “full-length human” for “PVR and”, “CD112” for “CD112 by means of detection)”

B2: Tigit-5 mouse monoclonal antibody (antibody, V domains shown)
VH: QVQLQQPGAELVRPGASVKLSCKASGYSFTSYWMNWVKQRPGQGLEWIGMIRPSDSETRLNQMFKDKATLTVDKSSSTAYMQLSSPTSDDSAVYYCAGIHDYGHGAYWGQGTLVTVSA
VL: DIQMIQSPASLSVSVGETVTITCRASENIYSNLAWYQQKQGKSPQLLVYAASHLPDGVPSRFSGSGSGTQYSLKINSLQSEDFGSYYCQHFWGTPRTFGGGTKLEIKR
notes: Mouse monoclonal antibody from hybridoma
epitope binning signal (name and unit not given) [1]: 0.0443 | Span (hTIGIT-hFc [3]): 212 MFI-APC

B3: 3Tigit-16 mouse monoclonal antibody (antibody, V domains shown)
VH: EVQLQQSGPELVKPGASVKMSCKASGFTFTDYFMDWVKQSRGASFEWIGRLNPNNGRTSYNQKFKGKATLTVDKSSSTAYMELNSLTSEDSAVYYCARGDLGRWYFDVWGAGTTVTVSS
VL: QIVLTQSPAIMSASPGEKVTMTCSASSSVSYMHWYQQKSGTSPKRWIYDTSKLASGVPTRFSGSGSGTSYSLTISSMEAEDAASYFCQQWSSNSLTFGAGTKLELKR
notes: as for B2
epitope binning signal (name and unit not given) [1]: 0.008 | IC50 (hTIGIT-hFc [2]): 0.636 µg/mL | Span (hTIGIT-hFc [3]): 215 MFI-APC

Continued, values first:

epitope binning signal (name and unit not given) [1]: 0.01 | IC50 (hTIGIT-hFc [2]): 0.543 µg/mL | Span (hTIGIT-hFc [3]): 278 MFI-APC
B1: 3Tigit-12 mouse monoclonal antibody (antibody, V domains shown)
VH: QVQLQQSGAELVRPGTSVKMSCKAAGYTFTNYWIGWVKQRPGHGLEWIGDIYPGGGYTNYDEKFKGKATLTADTSSRTAYMQLSSLTSEDSAIYHCVNGGYGSTYGYFDVWGAGTTVTVSS
VL: DIVMSQSPSSLPVSVGEKVTMSCKSSQSLLFSSDQKNYLAWYQQKPGQSPKLLIYWASTRESGVPDRLTGSGSGTDFTLTISSVKAEDLAVYYCQQYHKYPFTFGGGTKLEIKR
notes: as for B2

epitope binning signal (name and unit not given) [1]: -0.0018 | IC50 (hTIGIT-hFc [2]): 0.628 µg/mL | Span (hTIGIT-hFc [3]): 327 MFI-APC
B4: 3Tigit-29 mouse monoclonal antibody (antibody, V domains shown)
VH: EVQLQQSGPELVKPGASVKISCKASGYTFTDYNMHWVKQSLGKSLEWIGYVNSFNGNTGYSQKFKSKVTLTVDRSSRTAYMDLRSLTSEDSAVFYCARSSRGGFAYWGQGTLVTVSA
VL: B3 VL with T59A, G65V, S84T, F86Y
notes: as for B2

Reference: patent US20240002500A1 (GUANGDONG FAPON BIOPHARMA, published 2024)
